Test results published in patent US20250019439A1 (Adimab, published 2025).

Legend:
ADI-48576 = target: T1, ADI-48576; test: SPR Carterra, yeast anti-ID
T1 construct: pH-dependent anti-CD3 antibody made in CHO cells
Description: (§1) Kinetic analysis was conducted at 25° C. in an HBSTE running buffer system (Carterra Cat #3630) using a Carterra LSA (Carterra USA, Salt Lake City, UT). The sample compartment was maintained at 20° C. for the duration of each experiment.
(§2) For antibody capture experiments, a goat anti-human Fc antibody (Jackson ImmunoResearch) was covalently coupled to an HC30M sensor chip surface via standard amine coupling (1:1 EDC:NHS) and then blocked with ethanolamine (1.0 M, pH 8.5). Covalent coupling steps were performed in 25 mM MES buffer (Carterra, Cat #3625) plus 0.05% Tween20. The anti-CD3 antibodies (100 nM in running buffer) were flowed over discrete regions of interest on the chip surface for 5 minutes. […] Dissociation of the anti-idiotype antibodies was monitored for 300s. Several blank buffer samples were injected over the entire chip surface at the start of each non-regenerative kinetic cycle. The preceding blank buffer injection was used for blank surface subtraction. At the end of each non-regenerative kinetic cycle, all surfaces were regenerated via two 30s injections of 10 mM glycine, pH 1.7.
(§3) For data processing and fitting, sensorgrams were double reference subtracted with a baseline drift correction of 4 RU. Sensorgrams were y-aligned and baseline corrected, filtered and cropped to include only the association and dissociation steps. Data was fitted to a 1:1 binding model using Carterra Kinetics Data Analysis software version 1.7.1.3055.

CTL-62227 = target: T2, CTL-62227; test: SPR Carterra, yeast anti-ID
T2 construct: also called odronextamab
Description: as §1, §2, §3

CTL-62228 = target: T3, CTL-62228; test: SPR Carterra, yeast anti-ID
T3 construct: also called glofitamab
Description: as §1, §2, §3

CTL-62240 = target: T4, CTL-62240; test: SPR Carterra, yeast anti-ID
T4 construct: also called ONO-4685
Description: as §1, §2, §3

ADI-50024 = target: T5, ADI-50024; test: SPR Carterra avidity, yeast anti-ID
T5 construct: anti-CD3 antibody made in CHO cells, captured by anti-human Fc
Description: as §1, §2, §3

ADI-70326 = target: T6, ADI-70326; test: SPR Carterra avidity, yeast anti-ID
T6 construct: anti-CD3 antibody made in CHO cells, captured by anti-human Fc
Description: as §1, §2, §3

ADI-70327 = target: T7, ADI-70327; test: SPR Carterra avidity, yeast anti-ID
T7 construct: anti-CD3 antibody made in CHO cells, captured by anti-human Fc
Description: as §1, §2, §3

ADI-70330 = target: T8, ADI-70330; test: SPR Carterra avidity, yeast anti-ID
T8 construct: anti-CD3 antibody made in CHO cells, captured by anti-human Fc
Description: as §1, §2, §3

ADI-26906 IgG = target: T9, ADI-26906 IgG; test: SPR Carterra avidity, yeast anti-ID
T9 construct: anti-CD3 IgG
Description: as §1, §2, §3

ADI-67450 = target: T10, ADI-67450; test: SPR Carterra avidity, yeast anti-ID
T10 construct: anti-CD3 antibody made in CHO cells, captured by anti-human Fc
Description: as §1, §2, §3

ADI-67445 = target: T11, ADI-67445; test: SPR Carterra avidity, yeast anti-ID
T11 construct: anti-CD3 antibody made in CHO cells, captured by anti-human Fc
Description: as §1, §2, §3

ADI-67447 = target: T12, ADI-67447; test: SPR Carterra avidity, yeast anti-ID
T12 construct: anti-CD3 antibody made in CHO cells, captured by anti-human Fc
Description: as §1, §2, §3

ADI-26909 = target: T13, ADI-26909; test: SPR Carterra avidity, yeast anti-ID
T13 construct: anti-CD3 antibody made in CHO cells, captured by anti-human Fc
Description: as §1, §2, §3

ADI-26913 IgG = target: T14, ADI-26913 IgG; test: SPR Carterra avidity, yeast anti-ID
T14 construct: anti-CD3 IgG
Description: as §1, §2, §3

ADI-26921 IgG = target: T15, ADI-26921 IgG; test: SPR Carterra avidity, yeast anti-ID
T15 construct: anti-CD3 IgG
Description: as §1, §2, §3

ADI-26916 IgG = target: T16, ADI-26916 IgG; test: SPR Carterra avidity, yeast anti-ID
T16 construct: anti-CD3 IgG
Description: as §1, §2, §3

ADI-26912 = target: T17, ADI-26912; test: SPR Carterra avidity, yeast anti-ID
T17 construct: anti-CD3 antibody made in CHO cells, captured by anti-human Fc
Description: as §1, §2, §3

ADI-26915 = target: T18, ADI-26915; test: SPR Carterra avidity, yeast anti-ID
T18 construct: anti-CD3 antibody made in CHO cells, captured by anti-human Fc
Description: as §1, §2, §3

ADI-48587 = target: T19, ADI-48587; test: SPR Carterra avidity, yeast anti-ID
T19 construct: pH-dependent anti-CD3 antibody made in CHO cells
Description: as §1, §2, §3

ADI-48592 = target: T20, ADI-48592; test: SPR Carterra avidity, yeast anti-ID
T20 construct: pH-dependent anti-CD3 antibody made in CHO cells
Description: as §1, §2, §3

ADI-48650 = target: T21, ADI-48650; test: SPR Carterra avidity, yeast anti-ID
T21 construct: pH-dependent anti-CD3 antibody made in CHO cells
Description: as §1, §2, §3

ADI-74965 = target: T22, ADI-74965; test: SPR Carterra avidity, yeast anti-ID
T22 construct: pH-dependent anti-CD3 antibody made in CHO cells
Description: as §1, §2, §3

ADI-74966 = target: T23, ADI-74966; test: SPR Carterra avidity, yeast anti-ID
T23 construct: pH-dependent anti-CD3 antibody made in CHO cells
Description: as §1, §2, §3

ADI-74968 = target: T24, ADI-74968; test: SPR Carterra avidity, yeast anti-ID
T24 construct: pH-dependent anti-CD3 antibody made in CHO cells
Description: as §1, §2, §3

ADI-76357 = target: T25, ADI-76357; test: SPR Carterra avidity, yeast anti-ID
T25 construct: anti-CD3 antibody made in CHO cells, captured by anti-human Fc
Description: as §1, §2, §3

ADI-76358 = target: T26, ADI-76358; test: SPR Carterra avidity, yeast anti-ID
T26 construct: anti-CD3 antibody made in CHO cells, captured by anti-human Fc
Description: as §1, §2, §3

ADI-76360 = target: T27, ADI-76360; test: SPR Carterra avidity, yeast anti-ID
T27 construct: anti-CD3 antibody made in CHO cells, captured by anti-human Fc
Description: as §1, §2, §3

ADI-76361 = target: T28, ADI-76361; test: SPR Carterra avidity, yeast anti-ID
T28 construct: anti-CD3 antibody made in CHO cells, captured by anti-human Fc
Description: as §1, §2, §3

ADI-76362 = target: T29, ADI-76362; test: SPR Carterra avidity, yeast anti-ID
T29 construct: anti-CD3 antibody made in CHO cells, captured by anti-human Fc
Description: as §1, §2, §3

CTL-62223 = target: T30, CTL-62223; test: SPR Carterra avidity, yeast anti-ID
T30 construct: also called mosunetuzumab
Description: as §1, §2, §3

ADI-22523 Fab = target: T31, ADI-22523 Fab; test: BLI; tip anti-ID IgG, solution ADI-22523 Fab
T31 construct: anti-CD3 Fab by papain digestion of the IgG
Description: (§4) ForteBio affinity measurements were performed generally as previously described (Estep et al., MAbs. 2013 5(2):270-8). Briefly, ForteBio affinity measurements were performed by loading antibody IgG or Fabs on-line onto AHC sensors. Sensors were equilibrated off-line in assay buffer for 30 minutes and then monitored on-line for 60 seconds for baseline establishment. For avid binding measurement, sensors with loaded antibodies were exposed to IgG or Fab solutions for 3 minutes, afterwards they were transferred to assay buffer for 3 minutes for off-rate measurement. Kinetics data were fit using a 1:1 binding model in the data analysis software provided by ForteBio to obtain equilibrium dissociation constant (KD=koff/kₒₙ) values. In each column, tip-immobilized antibodies are listed first and solution antibodies second.

ADI-22523 IgG = target: T32, ADI-22523 IgG; test: BLI; tip anti-ID IgG, solution ADI-22523 IgG
T32 construct: anti-CD3 IgG
Description: as §4

ADI-26919 = target: T33, ADI-26919; test: SPR Carterra avidity, yeast anti-ID, *koff limit
T33 construct: anti-CD3 antibody made in CHO cells, captured by anti-human Fc
Description: as §1, §2, §3

ADI-26920 IgG = target: T34, ADI-26920 IgG; test: SPR Carterra avidity, yeast anti-ID, *koff limit
T34 construct: anti-CD3 IgG
Description: as §1, §2, §3

ADI-26924 = target: T35, ADI-26924; test: SPR Carterra avidity, yeast anti-ID, *koff limit
T35 construct: anti-CD3 antibody made in CHO cells, captured by anti-human Fc
Description: as §1, §2, §3

ADI-26943 = target: T36, ADI-26943; test: SPR Carterra avidity, yeast anti-ID, *koff limit
T36 construct: anti-CD3 antibody made in CHO cells, captured by anti-human Fc
Description: as §1, §2, §3

ADI-74967 = target: T37, ADI-74967; test: SPR Carterra avidity, yeast anti-ID, *koff limit
T37 construct: pH-dependent anti-CD3 antibody made in CHO cells
Description: as §1, §2, §3

ADI-76359 = target: T38, ADI-76359; test: SPR Carterra avidity, yeast anti-ID, *koff limit
T38 construct: anti-CD3 antibody made in CHO cells, captured by anti-human Fc
Description: as §1, §2, §3

T10 sequence (VH, as listed by the source limits assumed, chain 1 of 2): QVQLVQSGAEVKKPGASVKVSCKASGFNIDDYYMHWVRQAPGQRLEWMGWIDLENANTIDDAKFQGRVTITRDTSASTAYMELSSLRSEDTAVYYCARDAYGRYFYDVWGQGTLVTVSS
T10 sequence (VL, as listed by the source limits assumed, chain 2 of 2): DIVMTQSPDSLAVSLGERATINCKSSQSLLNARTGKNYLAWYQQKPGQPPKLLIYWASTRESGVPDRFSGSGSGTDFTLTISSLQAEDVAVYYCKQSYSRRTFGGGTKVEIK
T13 sequence (VH, as listed by the source limits assumed, chain 1 of 2): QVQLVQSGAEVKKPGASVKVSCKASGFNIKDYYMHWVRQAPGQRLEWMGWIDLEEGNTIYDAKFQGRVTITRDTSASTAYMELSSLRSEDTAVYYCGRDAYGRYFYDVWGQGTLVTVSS
T12 sequence (VH, as listed by the source limits assumed, chain 1 of 2): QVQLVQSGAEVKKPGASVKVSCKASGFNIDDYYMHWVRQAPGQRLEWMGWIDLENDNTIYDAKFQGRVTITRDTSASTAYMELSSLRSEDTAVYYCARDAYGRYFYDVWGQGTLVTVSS
T34 sequence (VH, as listed by the source limits assumed, chain 1 of 2): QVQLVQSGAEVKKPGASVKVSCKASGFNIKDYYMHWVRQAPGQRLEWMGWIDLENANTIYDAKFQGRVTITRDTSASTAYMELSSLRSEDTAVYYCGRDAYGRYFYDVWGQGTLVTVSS
T34 sequence (VL, as listed by the source limits assumed, chain 2 of 2): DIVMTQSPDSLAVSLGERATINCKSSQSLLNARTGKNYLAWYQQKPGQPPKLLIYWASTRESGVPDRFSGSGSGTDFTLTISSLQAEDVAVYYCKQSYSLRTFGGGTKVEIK
T22 sequence (VH, as listed by the source, chain 1 of 2): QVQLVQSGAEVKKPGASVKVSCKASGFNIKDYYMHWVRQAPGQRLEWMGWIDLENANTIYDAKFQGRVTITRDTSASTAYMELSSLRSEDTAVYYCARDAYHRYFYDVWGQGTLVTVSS
T22 sequence (VL, as listed by the source, chain 2 of 2): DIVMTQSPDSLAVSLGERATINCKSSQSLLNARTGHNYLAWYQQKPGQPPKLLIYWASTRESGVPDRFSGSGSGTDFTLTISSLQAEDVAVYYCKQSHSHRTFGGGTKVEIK
T24 sequence (VL, as listed by the source, chain 2 of 2): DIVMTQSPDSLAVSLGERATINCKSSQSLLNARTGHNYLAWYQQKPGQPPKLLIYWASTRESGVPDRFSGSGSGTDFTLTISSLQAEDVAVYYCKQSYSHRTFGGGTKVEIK
T8 sequence (VH, as listed by the source limits assumed, chain 1 of 2): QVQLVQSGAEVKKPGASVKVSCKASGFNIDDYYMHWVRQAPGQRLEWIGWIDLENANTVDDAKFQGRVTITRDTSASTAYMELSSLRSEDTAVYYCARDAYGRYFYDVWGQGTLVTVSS
T8 sequence (VL, as listed by the source limits assumed, chain 2 of 2): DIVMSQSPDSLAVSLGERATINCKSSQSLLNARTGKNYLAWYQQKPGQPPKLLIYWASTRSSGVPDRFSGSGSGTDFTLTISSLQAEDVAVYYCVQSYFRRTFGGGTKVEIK
T16 sequence (VH, as listed by the source, chain 1 of 2): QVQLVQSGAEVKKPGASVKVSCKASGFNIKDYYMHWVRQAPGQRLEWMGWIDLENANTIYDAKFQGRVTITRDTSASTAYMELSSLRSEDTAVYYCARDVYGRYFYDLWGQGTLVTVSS
T30 sequence (VH, as listed by the source, chain 1 of 2): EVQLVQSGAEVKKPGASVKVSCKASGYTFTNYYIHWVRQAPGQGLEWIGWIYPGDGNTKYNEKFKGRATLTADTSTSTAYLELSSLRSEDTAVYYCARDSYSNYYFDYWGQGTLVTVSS
T30 sequence (VL, as listed by the source, chain 2 of 2): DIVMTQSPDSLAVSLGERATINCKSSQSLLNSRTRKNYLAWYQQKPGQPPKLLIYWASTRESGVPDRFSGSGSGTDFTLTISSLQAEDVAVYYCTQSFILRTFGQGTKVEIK
T27 sequence (VH, as listed by the source, chain 1 of 2): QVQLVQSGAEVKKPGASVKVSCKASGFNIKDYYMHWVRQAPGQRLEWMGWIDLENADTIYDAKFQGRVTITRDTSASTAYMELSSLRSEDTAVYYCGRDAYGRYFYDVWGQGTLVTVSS
T18 sequence (VH, as listed by the source, chain 1 of 2): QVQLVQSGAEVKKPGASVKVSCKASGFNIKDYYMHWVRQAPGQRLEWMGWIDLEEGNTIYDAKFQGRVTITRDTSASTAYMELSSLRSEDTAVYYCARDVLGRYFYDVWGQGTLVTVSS
T31 sequence (VH, as listed by the source limits assumed, chain 1 of 2): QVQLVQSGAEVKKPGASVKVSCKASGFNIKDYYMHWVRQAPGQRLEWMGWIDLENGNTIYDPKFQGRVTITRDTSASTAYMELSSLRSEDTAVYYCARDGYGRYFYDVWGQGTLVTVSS
T31 sequence (VL, as listed by the source limits assumed, chain 2 of 2): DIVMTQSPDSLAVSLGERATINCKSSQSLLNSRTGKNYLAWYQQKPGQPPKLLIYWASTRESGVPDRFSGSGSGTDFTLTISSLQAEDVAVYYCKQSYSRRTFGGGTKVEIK
T33 sequence (VH, as listed by the source limits assumed, chain 1 of 2): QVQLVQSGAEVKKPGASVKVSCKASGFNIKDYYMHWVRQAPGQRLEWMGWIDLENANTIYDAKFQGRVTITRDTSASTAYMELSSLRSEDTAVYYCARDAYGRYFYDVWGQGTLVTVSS
T28 sequence (VH, as listed by the source, chain 1 of 2): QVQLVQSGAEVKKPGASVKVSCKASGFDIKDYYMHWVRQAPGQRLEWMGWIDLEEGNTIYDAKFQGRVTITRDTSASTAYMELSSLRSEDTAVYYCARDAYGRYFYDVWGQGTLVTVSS
T4 sequence (VH, as listed by the source, chain 1 of 2): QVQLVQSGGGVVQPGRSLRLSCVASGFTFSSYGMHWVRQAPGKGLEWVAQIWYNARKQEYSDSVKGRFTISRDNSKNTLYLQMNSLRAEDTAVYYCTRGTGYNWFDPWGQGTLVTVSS
T4 sequence (VL, as listed by the source, chain 2 of 2): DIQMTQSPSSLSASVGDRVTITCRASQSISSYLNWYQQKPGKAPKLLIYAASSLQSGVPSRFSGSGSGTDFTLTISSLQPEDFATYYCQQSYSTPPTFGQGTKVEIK
T15 sequence (VH, as listed by the source limits assumed, chain 1 of 2): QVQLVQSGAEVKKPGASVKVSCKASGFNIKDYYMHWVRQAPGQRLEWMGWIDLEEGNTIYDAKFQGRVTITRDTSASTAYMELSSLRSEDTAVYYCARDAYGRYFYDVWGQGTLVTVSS

B1: ADI-30242 (antibody, V domains shown)
VH: QVQLVQSGAEVKKPGSSVKVSCKASGGTFSSYAISWVRQAPGQGLEWMGGIIPIFGTANYAQKFQGRVTITADESTSTAYMELSSLRSEDTAVYYCARGAPNYYGSGGYDDGWFDPWGQGTLVTVSS
VL: EIVLTQSPGTLSLSPGERATLSCRASQSVSSSYLAWYQQKPGQAPRLLIYGASSRATGIPDRFSGSGSGTDFTLTISRLEPEDFAVYYCQQFGRDPTFGGGTKVEIK
notes: anti-ID IgG
ADI-48576
  binding result: no binding (tested: up to 200 nM)
CTL-62227
  binding result: no binding (tested: up to 200 nM)
CTL-62228
  binding result: no binding (tested: up to 200 nM)
CTL-62240
  binding result: no binding (tested: up to 200 nM)
ADI-50024
  Kd: 11 nM
ADI-70326
  Kd: 45 nM
ADI-70327
  Kd: 45 nM
ADI-70330
  Kd: 40 nM
ADI-26906 IgG
  Kd: 5.9 nM
ADI-67450
  Kd: 56 nM
ADI-67445
  Kd: 11 nM
ADI-67447
  Kd: 8.4 nM
ADI-26909
  Kd: 17 nM
ADI-26913 IgG
  Kd: 24 nM
ADI-26921 IgG
  Kd: 21 nM
ADI-26916 IgG
  Kd: 35 nM
ADI-26912
  Kd: 33 nM
ADI-26915
  Kd: 56 nM
ADI-48587
  Kd: 43 nM
ADI-48592
  binding result: binds
ADI-48650
  Kd: 44 nM
ADI-74965
  Kd: 45 nM
ADI-74966
  Kd: 25 nM
ADI-74968
  Kd: 36 nM
ADI-76357
  Kd: 22 nM
ADI-76358
  Kd: 42 nM
ADI-76360
  Kd: 11 nM
ADI-76361
  Kd: 15 nM
ADI-76362
  Kd: 27 nM
CTL-62223
  Kd: 31 nM
ADI-22523 Fab
  Kd: 37.4 nM
ADI-22523 IgG
  Kd: 0.57 nM
ADI-26919
  Kd: 3.5 nM
ADI-26920 IgG
  Kd: 4.2 nM
ADI-26924
  Kd: 5.3 nM
ADI-26943
  Kd: 6.2 nM
ADI-74967
  Kd: 5.6 nM
ADI-76359
  Kd: 3.7 nM
